The values below come from publication PMC6374739.

B1: mCherry-UVR8-GFP (wild-type UV … LOCUS 8, from the pFRET-NcCg-DEST vector) [Arabidopsis thaliana] / itself (parent)
chain: MAEDMAADEVTAPPRKVLIISAGASHSVALLSGDIVCSWGRGEDGQLGHGDAEDRPSPTQLSALDGHQIVSVTCGADHTVAYSQSGMEVYSWGWGDFGRLGHGNSSDLFTPLPIKALHGIRIKQIACGDSHCLAVTMEGEVQSWGRNQNGQLGLGDTEDSLVPQKIQAFEGIRIKMVAAGAEHTAAVTEDGDLYGWGWGRYGNLGLGDRTDRLVPERVTSTGGEKMSMVACGWRHTISVSYSGALYTYGWSKYGQLGHGDLEDHLIPHKLEALSNSFISQISGGWRHTMALTSDGKLYGWGWNKFGQVGVGNNLDQCSPVQVRFPDDQKVVQVSCGWRHTLAVTERNNVFAWGRGTNGQLGIGESVDRNFPKIIEALSVDGASGQHIESSNIDPSSGKSWVSPAERYAVVPDETGLTDGSSKGNGGDISVPQTDVKRVRI

Details in all cases: with itself, read off a plot
In assay [1] the parent is B1. The assay can be described thus: FRET by acceptor photobleaching in tobacco leaves, pFRET-NcCg-DEST vector.
Variants of B1 are the subject of assay [2]. The experiment in a line: FRET (sensitized emission ratio mCherry(488)/GFP(488)) in tobacco leaves, pFRET-NcCg-DEST vector.
In assay [3] the parent is B1. The experiment in a line: intermolecular FRET (sensitized emission ratio mCherry(488)/GFP(488)) in tobacco leaves, pFRET-2in1-DEST vector.
Setting [4] is: +UV-B: 3 μmol m–2 s–1 broadband UV-B for 1 hour, parent: 11.
Setting [5] is: +UV-B: 3 μmol m–2 s–1 broadband UV-B for 1 hour, parent: 0.5.
Where [6] appears, read: +UV-B: 3 μmol m–2 s–1 broadband UV-B for 1 hour, parent: 0.44.

On to chain 1 W285F, for which the response in the assay with itself [1] (setting [4]) came out at 17%; in the assay with itself [1] (-UV-B, parent: 18) it was 17%; with itself [2] (setting [5]), 0.58; in the assay with itself [2] (-UV-B, parent: 0.56), 0.59; with itself [3] (setting [6]), 0.51; in the assay with itself [3] (-UV-B, parent: 0.5), 0.5.
For the variant chain 1 D96N D107N, the response was 9.7% with itself [1] (setting [4]); 9.6% with itself [1] (-UV-B, parent: 18); 0.43 with itself [2] (setting [5]); 0.43 in the assay with itself [2] (-UV-B, parent: 0.56); 0.33 in the assay with itself [3] (setting [6]); 0.33 with itself [3] (-UV-B, parent: 0.5).
